Publication PMC3572265 (Pediatric diabetes, 2012)

How the values were obtained:
[1] = plasma insulin pharmacokinetics during euglycemic clamp; assay type: in vivo, human; details: Without InsuPatch activation, 0.2 unit/kg s.c. bolus, mean±SEM
[2] = tested on: adolescents with type 1 diabetes; assay: euglycemic clamp, pharmacodynamics; assay type: in vivo, human; details: difference with vs without InsuPatch activation; 0.2 u/kg bolus

In the case of aspart insulin, the “time to reach maximum increments in plasma insulin” value [1] is reported as 67 ± 10 min and the “TGIRmax earlier with IP activation than without” value [2] is reported as 35 min.
